# Tests used:
# [1] = test system: T1, Lys(Dnp)-ATNATX4X3PRIVGG-Lys(Abz), X4 = S, X3 = W
# T1 sequence: KATNATSWPRIVGGK
# [2] = test system: T2, Lys(Dnp)-ATNATX4X3PRIVGG-Lys(Abz), X4 = G, X3 = A
# T2 sequence: KATNATGAPRIVGGK
# [3] = test system: T3, Lys(Dnp)-ATNATX4X3PRIVGG-Lys(Abz), X4 = T, X3 = V
# T3 sequence: KATNATTVPRIVGGK
# [4] = test system: T4, Lys(Dnp)-ATNATX4X3PRIVGG-Lys(Abz), X4 = S, X3 = M
# T4 sequence: KATNATSMPRIVGGK
# [5] = test system: T5, Lys(Dnp)-ATNATX4X3PRIVGG-Lys(Abz), X4 = D, X3 = G
# T5 sequence: KATNATDGPRIVGGK
# [6] = test system: T6, Lys(Dnp)-ATNATX4X3PRIVGG-Lys(Abz), X4 = H, X3 = R
# T6 sequence: KATNATHRPRIVGGK
# [7] = test system: T7, Lys(Dnp)-ATNATX4X3PRIVGG-Lys(Abz), X4 = N, X3 = K
# T7 sequence: KATNATNKPRIVGGK
# [8] = test system: T8, Lys(Dnp)-ATNATX4X3PRIVGG-Lys(Abz), X4 = N, X3 = T
# T8 sequence: KATNATNTPRIVGGK
# [9] = test system: T9, Lys(Dnp)-ATNATX4X3PRIVGG-Lys(Abz), X4 = S, X3 = A
# T9 sequence: KATNATSAPRIVGGK
# [10] = test system: T10, Lys(Dnp)-ATNATX4X3PRIVGG-Lys(Abz), X4 = A, X3 = E
# T10 sequence: KATNATAEPRIVGGK
# [11] = test system: T11, Lys(Dnp)-ATNATX4X3PRIVGG-Lys(Abz), X4 = G, X3 = Q
# T11 sequence: KATNATGQPRIVGGK
# [12] = test system: T12, Lys(Dnp)-ATNATX4X3PRIVGG-Lys(Abz), X4 = S, X3 = F
# T12 sequence: KATNATSFPRIVGGK
# [13] = test system: T13, Lys(Dnp)-ATNATX4X3PRIVGG-Lys(Abz), X4 = Q, X3 = Q
# T13 sequence: KATNATQQPRIVGGK
# [14] = test system: T14, Lys(Dnp)-ATNATX4X3PRIVGG-Lys(Abz), X4 = T, X3 = S
# T14 sequence: KATNATTSPRIVGGK
# [15] = test system: T15, Lys(Dnp)-ATNATX4X3PRIVGG-Lys(Abz), X4 = G, X3 = S
# T15 sequence: KATNATGSPRIVGGK
# [16] = test system: T16, Lys(Dnp)-ATNATX4X3PRIVGG-Lys(Abz), X4 = T, X3 = A
# T16 sequence: KATNATTAPRIVGGK
# [17] = test system: T17, Lys(Dnp)-ATNATX4X3PRIVGG-Lys(Abz), X4 = N, X3 = Y
# T17 sequence: KATNATNYPRIVGGK
# [18] = test system: T18, Lys(Dnp)-ATNATX4X3PRIVGG-Lys(Abz), X4 = G, X3 = G
# T18 sequence: KATNATGGPRIVGGK
# [19] = test system: T19, Lys(Dnp)-ATNATX4X3PRIVGG-Lys(Abz), X4 = P, X3 = E
# T19 sequence: KATNATPEPRIVGGK
# [20] = test system: T20, Lys(Dnp)-ATNATX4X3PRIVGG-Lys(Abz), X4 = H, X3 = W
# T20 sequence: KATNATHWPRIVGGK
# [21] = test system: T21, Lys(Dnp)-ATNATX4X3PRIVGG-Lys(Abz), X4 = H, X3 = Y
# T21 sequence: KATNATHYPRIVGGK
# [22] = test system: T22, Lys(Dnp)-ATNATX4X3PRIVGG-Lys(Abz), X4 = G, X3 = P
# T22 sequence: KATNATGPPRIVGGK
# [23] = test system: T23, Lys(Dnp)-ATNATX4X3PRIVGG-Lys(Abz), X4 = V, X3 = L
# T23 sequence: KATNATVLPRIVGGK
# [24] = test system: T24, Lys(Dnp)-ATNATX4X3PRIVGG-Lys(Abz), X4 = V, X3 = D
# T24 sequence: KATNATVDPRIVGGK
# [25] = test system: T25, Lys(Dnp)-ATNATX4X3PRIVGG-Lys(Abz), X4 = G, X3 = R
# T25 sequence: KATNATGRPRIVGGK
# [26] = test system: T26, Lys(Dnp)-ATNATX4X3PRIVGG-Lys(Abz), X4 = N, X3 = M
# T26 sequence: KATNATNMPRIVGGK
# [27] = test system: T27, Lys(Dnp)-ATNATX4X3PRIVGG-Lys(Abz), X4 = Q, X3 = W
# T27 sequence: KATNATQWPRIVGGK
# [28] = test system: T28, Lys(Dnp)-ATNATX4X3PRIVGG-Lys(Abz), X4 = G, X3 = K
# T28 sequence: KATNATGKPRIVGGK
# [29] = test system: T29, Lys(Dnp)-ATNATX4X3PRIVGG-Lys(Abz), X4 = H, X3 = T
# T29 sequence: KATNATHTPRIVGGK
# [30] = test system: T30, Lys(Dnp)-ATNATX4X3PRIVGG-Lys(Abz), X4 = N, X3 = Q
# T30 sequence: KATNATNQPRIVGGK
# [31] = test system: T31, Lys(Dnp)-ATNATX4X3PRIVGG-Lys(Abz), X4 = D, X3 = F
# T31 sequence: KATNATDFPRIVGGK
# [32] = test system: T32, Lys(Dnp)-ATNATX4X3PRIVGG-Lys(Abz), X4 = G, X3 = M
# T32 sequence: KATNATGMPRIVGGK
# [33] = test system: T33, Lys(Dnp)-ATNATX4X3PRIVGG-Lys(Abz), X4 = S, X3 = S
# T33 sequence: KATNATSSPRIVGGK
# [34] = test system: T34, Lys(Dnp)-ATNATX4X3PRIVGG-Lys(Abz), X4 = H, X3 = S
# T34 sequence: KATNATHSPRIVGGK
# [35] = test system: T35, Lys(Dnp)-ATNATX4X3PRIVGG-Lys(Abz), X4 = S, X3 = I
# T35 sequence: KATNATSIPRIVGGK
# [36] = test system: T36, Lys(Dnp)-ATNATX4X3PRIVGG-Lys(Abz), X4 = Y, X3 = V
# T36 sequence: KATNATYVPRIVGGK
# [37] = test system: T37, Lys(Dnp)-ATNATX4X3PRIVGG-Lys(Abz), X4 = E, X3 = A
# T37 sequence: KATNATEAPRIVGGK
# [38] = test system: T38, Lys(Dnp)-ATNATX4X3PRIVGG-Lys(Abz), X4 = E, X3 = H
# T38 sequence: KATNATEHPRIVGGK
# [39] = test system: T39, Lys(Dnp)-ATNATX4X3PRIVGG-Lys(Abz), X4 = E, X3 = W
# T39 sequence: KATNATEWPRIVGGK
substance,measurement,setting,value
Human plasma purified Factor Xa,FXa kcat/KM,[1],43 M⁻¹ s⁻¹
same,FXa kcat/KM,[2],50 M⁻¹ s⁻¹
same,FXa kcat/KM,[3],20 M⁻¹ s⁻¹
same,FXa kcat/KM,[4],46 M⁻¹ s⁻¹
same,FXa kcat/KM,[5],5.8 M⁻¹ s⁻¹
same,FXa kcat/KM,[6],140 M⁻¹ s⁻¹
same,FXa kcat/KM,[7],14 M⁻¹ s⁻¹
same,FXa kcat/KM,[8],15 M⁻¹ s⁻¹
same,FXa kcat/KM,[9],19 M⁻¹ s⁻¹
same,FXa kcat/KM,[10],180 M⁻¹ s⁻¹
same,FXa kcat/KM,[11],94 M⁻¹ s⁻¹
same,FXa kcat/KM,[12],17 M⁻¹ s⁻¹
same,FXa kcat/KM,[13],1400 M⁻¹ s⁻¹
same,FXa kcat/KM,[14],16 M⁻¹ s⁻¹
same,FXa kcat/KM,[15],49 M⁻¹ s⁻¹
same,FXa kcat/KM,[16],20 M⁻¹ s⁻¹
same,FXa kcat/KM,[17],15 M⁻¹ s⁻¹
same,FXa kcat/KM,[18],16 M⁻¹ s⁻¹
same,FXa kcat/KM,[19],1000 M⁻¹ s⁻¹
same,FXa kcat/KM,[20],320 M⁻¹ s⁻¹
same,FXa kcat/KM,[21],41 M⁻¹ s⁻¹
same,FXa kcat/KM,[22],7.5 M⁻¹ s⁻¹
same,FXa kcat/KM,[23],330 M⁻¹ s⁻¹
same,FXa kcat/KM,[24],70 M⁻¹ s⁻¹
same,FXa kcat/KM,[25],130 M⁻¹ s⁻¹
same,FXa kcat/KM,[26],27 M⁻¹ s⁻¹
same,FXa kcat/KM,[27],1400 M⁻¹ s⁻¹
same,FXa kcat/KM,[28],34 M⁻¹ s⁻¹
same,FXa kcat/KM,[29],50 M⁻¹ s⁻¹
same,FXa kcat/KM,[30],27 M⁻¹ s⁻¹
same,FXa kcat/KM,[31],11 M⁻¹ s⁻¹
same,FXa kcat/KM,[32],52 M⁻¹ s⁻¹
same,FXa kcat/KM,[33],40 M⁻¹ s⁻¹
same,FXa kcat/KM,[34],60 M⁻¹ s⁻¹
same,FXa kcat/KM,[35],55 M⁻¹ s⁻¹
same,FXa kcat/KM,[36],49 M⁻¹ s⁻¹
same,FXa kcat/KM,[37],4.3 M⁻¹ s⁻¹
same,FXa kcat/KM,[38],7.7 M⁻¹ s⁻¹
same,FXa kcat/KM,[39],8 M⁻¹ s⁻¹
